Test results: publication PMC12661054, “The CIP2A-TOPBP1 axis facilitates mitotic DNA repair via MiDAS and MMEJ” (Nature Communications, 2025)

Key:
TOPBP1 BRCT0-1-2, 1-290 [1] = target: TOPBP1 BRCT0-1-2, 1-290 (UniProt Q92547); assay: biotin-peptide pull-down, Coomassie SDS-PAGE; conditions: reference: unphosphorylated T1260 peptide; sites T1260
TOPBP1 = TOPBP1 (UniProt Q92547); assay: GFP-Trap co-IP, western blot; conditions: reference: eGFP-SLX4 wild type; sites T1260
TOPBP1 BRCT0-1-2, 1-290 [2] = target: TOPBP1 BRCT0-1-2, 1-290 (UniProt Q92547); assay: fluorescence polarisation titration; conditions: reference: pT1260 peptide, untreated; sites T1260

Substance: SLX4 1247-1267 (from UniProt Q8IY92) synthetic pT1260 peptide
- binding against the reference (TOPBP1 BRCT0-1-2, 1-290 [1]): gained

Substance: SLX4 (from UniProt Q8IY92) eGFP-SLX4 T1260A
- binding against the reference (TOPBP1): lost

Substance: SLX4 1253-1267 (from UniProt Q8IY92) pT1260 peptide treated with lambda phosphatase
- binding against the reference (TOPBP1 BRCT0-1-2, 1-290 [2]): lost
